# Reference: patent publication US20260242478A1 (published 2026)
# B1: Phage-502 (peptide, not shown: large carriers)
# peptide: YCDGHSPEYMWKCL
# notes: Clonal phage supernatant of the Peptide-87 optimisation library
# B2: Phage-503 (peptide, not shown: large carriers)
# peptide: YCDGHLPEYMEKCL
# notes: as for B1
# B3: Phage-505 (peptide, not shown: large carriers)
# peptide: YCDGHLPEYMNKCL
# notes: as for B1
# B4: Phage-500 (peptide, not shown: large carriers)
# peptide: YCDGHLPQYMEKCL
# notes: as for B1
# B5: Phage-501 (peptide, not shown: large carriers)
# peptide: YCAGHAPEYMEKCL
# notes: as for B1
# Assays:
# Anti-PSMA Fab [1] = target: T1, Anti-PSMA Fab (biotinylated (site not stated)); assay: clonal phage ELISA on captured biotinylated PSMA Fab pre-incubated with PSMA antigen as competitor, anti-M13 HRP detection
# T1 construct: Biotinylated PSMA Fab captured on neutravidin plates in the phage ELISA; also called 006 PSMA Fab
# Anti-PSMA Fab [2] = target: T1, Anti-PSMA Fab; assay: clonal phage ELISA on captured biotinylated PSMA Fab, anti-M13 HRP detection
# Protocol: (§1) Clonal phage were harvested as crude supernatants and screened via standard ELISAs. […] Prior to the addition of clonal phage. wells were incubated with blocking buffer and PSMA antigen or blocking buffer alone. Without washing or aspirating, clonal phage supernatants were then added to the wells and incubated for a short time. Wells were then washed followed by detection of bound phage using a horse radish conjugated anti-M13 antibody.
# [3] = target: Anti-CD28 Fab (SEQ ID NOs: 696, 697); assay: phage binding ELISA on captured anti-CD28 Fab pre-incubated with CD28 antigen as competitor
# Protocol: (§2) After panning, phage infected bacteria were plated out and colonies picked into 96 well blocks. Clonal phage was then amplified and separated from bacterial cells via centrifugation.
# (§3) Clonal phage were harvested as crude supematants and screened via standard ELISAs. […] Prior to the addition of clonal phage, wells were incubated with blocking buffer and CD28 antigen or blocking buffer alone. Without washing or aspirating, clonal phage supematants were then added to the wells and incubated for a short time. Wells were then washed followed by detection of bound phage using a horse radish conjugated anti-M13 antibody. Clonal phage of interest were then sent for sequence analysis.
# [4] = target: Anti-CD28 Fab (SEQ ID NOs: 696, 697); assay: phage binding ELISA; biotinylated anti-CD28 Fab captured on neutravidin plate, clonal phage supernatant, anti-M13 HRP detection
# Protocol: as §2, §3
# [5] = target: T2, anti-CD28 Fab (SEQ ID NOs: 696, 697); assay: phage ELISA; biotinylated anti-CD28 Fab on neutravidin plate, wells pre-incubated with CD28 antigen as competitor, anti-M13 HRP detection
# T2 construct: In the phage ELISA the Fab was biotinylated and captured on neutravidin coated plates
# Protocol: as §2, §3
# [6] = target: T2, anti-CD28 Fab (SEQ ID NOs: 696, 697); assay: phage ELISA; biotinylated anti-CD28 Fab on neutravidin plate, clonal phage supernatant, anti-M13 HRP detection;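 note: crude supernatants of single phage clones picked after panning were screened for binding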
# Protocol: as §2, §3
# PSMA Fab [7] = target: T3, PSMA Fab (biotinylated (site not stated)); assay: clonal phage ELISA on biotinylated PSMA Fab captured on neutravidin, blocking buffer alone, anti-M13 HRP detection;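 note: clonal phage were tested as crude supernatants, and the signal reflects phage still bound to the wells after washing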
# T3 construct: Biotinylated PSMA Fab captured on neutravidin plates for the clonal phage ELISA; also called Anti-PSMA Fab; 006 PSMA Fab
# PSMA Fab [8] = target: T3, PSMA Fab; assay: clonal phage ELISA on captured PSMA Fab pre-incubated with PSMA antigen as competitor, anti-M13 HRP detection;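 note: crude clonal phage supernatants tested by ELISA, wells first treated with blocking buffer plus PSMA antigen, bound phage read out via HRP-linked anti-M13 antibody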
# Protocol: as §1
# T2 sequence (VH, as listed by the source, chain 1 of 2): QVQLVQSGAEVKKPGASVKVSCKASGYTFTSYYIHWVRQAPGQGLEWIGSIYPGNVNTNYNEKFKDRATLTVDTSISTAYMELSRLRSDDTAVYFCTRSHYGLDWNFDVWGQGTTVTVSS
# T2 sequence (VL, as listed by the source, chain 2 of 2): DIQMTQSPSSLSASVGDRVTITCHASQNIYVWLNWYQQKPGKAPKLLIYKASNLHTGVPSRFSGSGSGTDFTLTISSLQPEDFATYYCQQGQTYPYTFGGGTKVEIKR
# Chain of Anti-CD28 Fab (SEQ ID NOs: 696, 697) (VH, as listed by the source, chain 1 of 2): as the sequence (VH, as listed by the source, chain 1 of 2) above
# Chain of Anti-CD28 Fab (SEQ ID NOs: 696, 697) (VL, as listed by the source, chain 2 of 2): as the sequence (VL, as listed by the source, chain 2 of 2) above
Binder,"Phage binding ELISA signal, Anti-PSMA Fab in presence of PSMA antigen (Anti-PSMA Fab [1])","Phage binding ELISA signal, Anti-PSMA Fab (Anti-PSMA Fab [2])","Phage binding ELISA, Anti-CD28 Fab signal in the presence of CD28 [5]","Phage binding ELISA, Anti-CD28 Fab (SEQ ID NOs: 696, 697) signal [6]",also measured
EWPICRPSWMCDDF [Phage-3994],0.0604,0.63,,,
B1,,,,,Anti-CD28 Fab signal in the presence of CD28 (phage binding ELISA) [3]: 0.09; Anti-CD28 Fab signal (phage binding ELISA) [4]: 2.44
DCPWLSGFSRPLLC (also called Peptide-93) [Phage-472],,,0.07,1.27,
YCEGHLPEYIEKCL (also called Peptide-120) [Phage-481],,,0.08,2.06,
MTDRCKPEWMCFGF [Phage-3989],0.142,0.677,,,
KHILCEPVWMCVGF [Phage-3984],0.0708,0.697,,,
B2,,,,,Anti-CD28 Fab signal in the presence of CD28 (phage binding ELISA) [3]: 0.1; Anti-CD28 Fab signal (phage binding ELISA) [4]: 2.44
B3,,,,,Anti-CD28 Fab signal in the presence of CD28 (phage binding ELISA) [3]: 0.13; Anti-CD28 Fab signal (phage binding ELISA) [4]: 2.43
B4,,,,,Anti-CD28 Fab signal in the presence of CD28 (phage binding ELISA) [3]: 0.11; Anti-CD28 Fab signal (phage binding ELISA) [4]: 2.47
LLIVCKPPWMCAGS [Phage-3990],0.0992,0.666,,,
YCEGHSQENIWKCL [Phage-485],,,0.07,1.41,
YERMCSPEWMCWDF [Phage-3983],0.0861,0.704,,,
NGPMCVPQWMCDGT [Phage-3986],0.0558,0.691,,,
YCAGHSHEYLAKCE (also called Peptide-98) [Phage-477],,,0.06,0.86,
VENLCRPSWMCEGF [Phage-3985],0.112,0.696,,,
VFKMCVPMWMCQVS [Phage-3992],0.0687,0.635,,,
STPYCVPDWMCAGF [Phage-3988],0.0729,0.683,,,
IAVKCMPAWMCVGI [Phage-3993],0.0897,0.632,,,
EYRECVPDWMCSGF [Phage-3980],,,,,"Phage binding ELISA signal, Anti-PSMA Fab (PSMA Fab [7]): 0.731; Phage binding ELISA signal, Anti-PSMA Fab in presence of PSMA antigen (PSMA Fab [8]): 0.0722"

Binder,"Phage binding ELISA signal, Anti-PSMA Fab in presence of PSMA antigen (Anti-PSMA Fab [1])","Phage binding ELISA signal, Anti-PSMA Fab (Anti-PSMA Fab [2])","Phage binding ELISA, Anti-CD28 Fab signal in the presence of CD28 [5]","Phage binding ELISA, Anti-CD28 Fab (SEQ ID NOs: 696, 697) signal [6]",also measured
YCEGHSPEYILKCL [Phage-478],,,0.06,1.75,
YCEGHRPEYILKCL [Phage-479],,,0.06,1.27,
SVMNCVPLRMCEGF [Phage-3991],0.0968,0.644,,,
YCMGHSHEHIWKCL (also called Peptide-97) [Phage-476],,,0.07,0.87,
VVVQCIPEWMCNGF [Phage-3981],0.0683,0.729,,,
SYQLCKPEWMCHGW [Phage-3982],0.0692,0.715,,,
B5,,,,,Anti-CD28 Fab signal in the presence of CD28 (phage binding ELISA) [3]: 0.09; Anti-CD28 Fab signal (phage binding ELISA) [4]: 2.45
YCAGHTEEHYVKCM (also called Peptide-96) [Phage-475],,,0.07,0.62,
YCEGHAPEYIAKCL [Phage-482],,,0.09,2.15,
YCEGHAPEYIWKCL [Phage-484],,,0.07,1.63,
YCEGHAPEYIRKCL [Phage-483],,,0.08,1.63,
YCEGHEGIYFWKCL [Phage-480],,,0.06,2.07,
YCAGHMPQYEVKCL (also called Peptide-95) [Phage-474],,,0.06,0.22,
PAQICMPAWMCHGF [Phage-3976],,,,,"Phage binding ELISA signal, Anti-PSMA Fab (PSMA Fab [7]): 0.754; Phage binding ELISA signal, Anti-PSMA Fab in presence of PSMA antigen (PSMA Fab [8]): 0.0646"
HVQRCVPQWMCVGF [Phage-3987],0.119,0.686,,,
GFRTCVPSWMCTGF [Phage-3978],,,,,"Phage binding ELISA signal, Anti-PSMA Fab (PSMA Fab [7]): 0.734; Phage binding ELISA signal, Anti-PSMA Fab in presence of PSMA antigen (PSMA Fab [8]): 0.0906"
DARMCIPMWMCQAF [Phage-3977],,,,,"Phage binding ELISA signal, Anti-PSMA Fab (PSMA Fab [7]): 0.742; Phage binding ELISA signal, Anti-PSMA Fab in presence of PSMA antigen (PSMA Fab [8]): 0.0713"
LSVECIPVWMCNGF [Phage-3979],,,,,"Phage binding ELISA signal, Anti-PSMA Fab (PSMA Fab [7]): 0.732; Phage binding ELISA signal, Anti-PSMA Fab in presence of PSMA antigen (PSMA Fab [8]): 0.0832"
YCAGMSTIQLWLKC (also called Peptide-94) [Phage-473],,,0.09,2.16,
